Laboratory results from paper PMC12572195 (Nature Communications, 2025).

Target: SPT6 (human, UniProt Q7KZ85 1-1726)
Test: cell-based or functional assay

co-transcriptional methylation assay (3H activity) with SETD2 Construct 4 (includes the complete SBR, lacks the SRI domain): ~50 % of WT
B1: SETD2 (residues 1446-2564) (domain or fragment)
chain: GPSCVMDDFRDPQRWKECAKQGKMPCYFDLIEENVYLTERKKNKSHRDIKRMQCECTPLSKDERAQGEIACGEDCLNRLLMIECSSRCPNGDYCSNRRFQRKQHADVEVILTEKKGWGLRAAKDLPSNTFVLEYCGEVLDHKEFKARVKEYARNKNIHYYFMALKNDEIIDATQKGNCSRFMNHSCEPNCETQKWTVNGQLRVGFFTTKLVPSGSELTFDYQFQRYGKEAQKCFCGSANCRGYLGGENRVSIRAAGGKMKKERSRKKDSVDGELEALMENGEGLSDKNQVLSLSRLMVRIETLEQKLTCLELIQNTHSQSCLKSFLERHGLSLLWIWMAELGDGRESNQKLQEEIIKTLEHLPIPTKNMLEESKVLPIIQRWSQTKTAVPPLSEGDGYSSENTSRAHTPLNTPDPSTKLSTEADTDTPKKLMFRRLKIISENSMDSAISDATSELEGKDGKEDLDQLENVPVEEEEELQSQQLLPQQLPECKVDSETNIEASKLPTSEPEADAEIEPKESNGTKLEEPINEETPSQDEEEGVSDVESERSQEQPDKTVDISDLATKLLDSWKDLKEVYRIPKKSQTEKENTTTERGRDAVGFRDQTPAPKTPNRSRERDPDKQTQNKEKRKRRSSLSPPSSAYERGTKRPDDRYDTPTSKKKVRIKDRNKLSTEERRKLFEQEVAQREAQKQQQQMQNLGMTSPLPYDSLGYNAPHHPFAGYPPGYPMQAYVDPSNPNAGKVLLPTPSMDPVCSPAPYDHAQPLVGHSTEPLSAPPPVPVVPHVAAPVEVSSSQYVAQSDGVVHQDSSVAVLPVPAPGPVQGQNYSVWDSNQQSVSVQQQYSPAQSQATIYYQGQTCPTVYGVTSPYSQTTPPIVQSYAQPSLQYIQGQQIFTAHPQGVVVQPAAAVTTIVAPGQPQPLQPSEMVVTNNLLDLPPPSPPKPKTIVLPPNWKTARDPEGKIYYYHVITRQTQWDPPTWESPGDDASLEHEAEMDLGTPTYDENPMKASKKPKTAEADTSSELAKKSKEVFRKEMSQFIVQCLNPYRKPDCKVGRITTTEDFKHLARKLTHGVMNKELKYCKNPEDLECNENVKHKTKEYIKKYMQKFGAVYKPKEDTELE
